Laboratory results: US20150065440A1, “SULFATED OLIGOSACCHARIDE DERIVATIVES” (Progen Pharmaceuticals Limited, priority 2007, published 2015)

Substrate: CO[C@H]1O[C@H](COS(=O)(=O)O)[C@@H](O[C@@H]2O[C@@H](C(=O)O)[C@@H](O[C@H]3O[C@H](COS(=O)(=O)O)[C@@H](O[C@@H]4O[C@H](C(=O)O)[C@@H](O[C@H]5O[C@H](COS(=O)(=O)O)[C@@H](O)[C@H](O)[C@H]5NS(=O)(=O)O)[C@H](O)[C@H]4O)[C@H](OS(=O)(=O)O)[C@H]3NS(=O)(=O)O)[C@H](O)[C@H]2OS(=O)(=O)O)[C@H](O)[C@H]1NS(=O)(=O)O
Assay: purified protein, by the assay type
Conditions: other: substrate of heparanase; pH 5.0

B1: recombinant human heparanase (Homo sapiens) (protein)
chain 1: KKFKNSTYSRSSVDVLYTFANCSGLDLIFGLNALLRTADLQWNSSNAQLLLDYCSSKGYNISWELGNEPNSFLKKADIFINGSQLGEDFIQLHKLLRKSTFKNAKLYGPDVGQPRRKTAKMLKSFLKAGGEVIDSVTWHHYYLNGRTATKEDFLNPDVLDIFISSVQKVFQVVESTRPGKKVWLGETSSAYGGGAPLLSDTFAAGFMWLDKLGLSARMGIEVVMRQVFFGAGNYHLVDENFDPLPDYWLSLLFKKLVGTKVLMASVQGSKRRKLRVYLHCTNTDNPRYKEGDLTLYAINLHNVTKYLRLPYPFSNKQVDKYLLRPLGPHGLLSKSVQLNGLTLKMVDDQTLPPLMEKPLRPGSSLGLPAFSYSFFVIRNAKVAACI
chain 2: QDVVDLDFFTQEPLHLVSPSFLSVTIDANLATDPRFLILLGSPKLRTLARGLSPAYLRFGGTKTDFLIFDPKKE
Km: 33 ± 6 µM
